# Laboratory results from patent publication US20140087995A1 (published 2014).
# Numbered stars: 1 amine (or outer) side, 2 acyl side, 3 side chain; on linkers, the order of the positions; unused ones are H or OH. Bridge positions count the residues as written; N and C are the ends. Side chains are listed from the residue outwards. Ends that are not written are not given here. * marks the point of attachment. C20 diacid = O=C(O)CCCCCCCCCCCCCCCCCCC(=O)*; C18 diacid = O=C(O)CCCCCCCCCCCCCCCCC(=O)*; C16 diacid = O=C(O)CCCCCCCCCCCCCCC(=O)*; γGlu = O=C(O)[C@H](CCC(=O)[*:2])N[*:1]; C14 diacid = O=C(O)CCCCCCCCCCCCC(=O)*; AEEA = NCCOCCOCC(=O)O
# T1: human amylin receptor (amylin 3(a) receptor: human calcitonin receptor coexpressed with RAMP-3) (human, UniProt P30988 25-474; O60896 24-148)
# T1 sequence (looked up) 1: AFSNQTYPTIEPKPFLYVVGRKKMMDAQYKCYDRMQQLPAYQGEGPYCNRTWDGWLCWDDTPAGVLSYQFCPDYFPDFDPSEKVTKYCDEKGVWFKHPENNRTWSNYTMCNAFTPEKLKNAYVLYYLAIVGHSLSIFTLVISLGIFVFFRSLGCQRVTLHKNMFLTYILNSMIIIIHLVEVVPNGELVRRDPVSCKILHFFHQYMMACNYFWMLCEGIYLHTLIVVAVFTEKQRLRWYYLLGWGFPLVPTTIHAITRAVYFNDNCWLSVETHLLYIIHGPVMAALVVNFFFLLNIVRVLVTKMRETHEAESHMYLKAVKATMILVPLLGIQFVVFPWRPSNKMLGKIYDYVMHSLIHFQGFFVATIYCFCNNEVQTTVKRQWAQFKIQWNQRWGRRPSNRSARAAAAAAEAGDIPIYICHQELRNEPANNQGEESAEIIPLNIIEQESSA
# T1 sequence (looked up) 2: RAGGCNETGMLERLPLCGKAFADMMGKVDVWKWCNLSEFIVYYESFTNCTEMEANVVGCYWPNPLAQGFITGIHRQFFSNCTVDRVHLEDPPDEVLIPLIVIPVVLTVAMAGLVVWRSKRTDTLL
# T2: human calcitonin receptor (human, UniProt P30988 25-474)
# T2 sequence (looked up): T1 sequence (looked up) 1
# B1: N^ε1-[(4S)-4-carboxy-4-(17-carboxyheptadecanoylamino)butanoyl]-[Arg17,Pro21,Pro27,His34]-h-amylin (peptide)
# peptide: K([γGlu-C18 diacid])CNTATCATQRLANFLRHSSPNFGAIPSSTNVGHNTY-NH2
# modifications: disulfide 2-7; N-terminus assumed
# SMILES: CC[C@H](C)[C@H](NC(=O)[C@H](C)NC(=O)CNC(=O)[C@H](Cc1ccccc1)NC(=O)[C@H](CC(N)=O)NC(=O)[C@@H]1CCCN1C(=O)[C@H](CO)NC(=O)[C@H](CO)NC(=O)[C@H](Cc1c[nH]cn1)NC(=O)[C@H](CCCNC(=N)N)NC(=O)[C@H](CC(C)C)NC(=O)[C@H](Cc1ccccc1)NC(=O)[C@H](CC(N)=O)NC(=O)[C@H](C)NC(=O)[C@H](CC(C)C)NC(=O)[C@H](CCCNC(=N)N)NC(=O)[C@H](CCC(N)=O)NC(=O)[C@@H](NC(=O)[C@H](C)NC(=O)[C@@H]1CSSC[C@H](NC(=O)[C@@H](N)CCCCNC(=O)CC[C@H](NC(=O)CCCCCCCCCCCCCCCCC(=O)O)C(=O)O)C(=O)N[C@@H](CC(N)=O)C(=O)N[C@@H]([C@@H](C)O)C(=O)N[C@@H](C)C(=O)N[C@@H]([C@@H](C)O)C(=O)N1)[C@@H](C)O)C(=O)N1CCC[C@H]1C(=O)N[C@@H](CO)C(=O)N[C@@H](CO)C(=O)N[C@H](C(=O)N[C@@H](CC(N)=O)C(=O)N[C@H](C(=O)NCC(=O)N[C@@H](Cc1c[nH]cn1)C(=O)N[C@@H](CC(N)=O)C(=O)N[C@H](C(=O)N[C@@H](Cc1ccc(O)cc1)C(N)=O)[C@@H](C)O)C(C)C)[C@@H](C)O
# B2: N^ε1-[(4S)-4-carboxy-4-(13-carboxytridecanoylamino)butanoyl]-[Arg17,Pro21,Pro27,His34]-h-amylin (peptide)
# peptide: K([γGlu-C14 diacid])CNTATCATQRLANFLRHSSPNFGAIPSSTNVGHNTY-NH2
# modifications: disulfide 2-7; N-terminus assumed
# SMILES: CC[C@H](C)[C@H](NC(=O)[C@H](C)NC(=O)CNC(=O)[C@H](Cc1ccccc1)NC(=O)[C@H](CC(N)=O)NC(=O)[C@@H]1CCCN1C(=O)[C@H](CO)NC(=O)[C@H](CO)NC(=O)[C@H](Cc1c[nH]cn1)NC(=O)[C@H](CCCNC(=N)N)NC(=O)[C@H](CC(C)C)NC(=O)[C@H](Cc1ccccc1)NC(=O)[C@H](CC(N)=O)NC(=O)[C@H](C)NC(=O)[C@H](CC(C)C)NC(=O)[C@H](CCCNC(=N)N)NC(=O)[C@H](CCC(N)=O)NC(=O)[C@@H](NC(=O)[C@H](C)NC(=O)[C@@H]1CSSC[C@H](NC(=O)[C@@H](N)CCCCNC(=O)CC[C@H](NC(=O)CCCCCCCCCCCCC(=O)O)C(=O)O)C(=O)N[C@@H](CC(N)=O)C(=O)N[C@@H]([C@@H](C)O)C(=O)N[C@@H](C)C(=O)N[C@@H]([C@@H](C)O)C(=O)N1)[C@@H](C)O)C(=O)N1CCC[C@H]1C(=O)N[C@@H](CO)C(=O)N[C@@H](CO)C(=O)N[C@H](C(=O)N[C@@H](CC(N)=O)C(=O)N[C@H](C(=O)NCC(=O)N[C@@H](Cc1c[nH]cn1)C(=O)N[C@@H](CC(N)=O)C(=O)N[C@H](C(=O)N[C@@H](Cc1ccc(O)cc1)C(N)=O)[C@@H](C)O)C(C)C)[C@@H](C)O
# B3: N^ε1-[2-[2-[2-[[2-[2-[2-[[(4S)-4-carboxy-4-(19-carboxynonadecanoylamino)butanoyl]amino]ethoxy]ethoxy]acetyl]amino]ethoxy]ethoxy]acetyl]-[Arg17,Pro21,Pro27,His34 … (peptide)
# peptide: K([AEEA-AEEA-γGlu-C20 diacid])CNTATCATQRLANFLRHSSPNFGAIPSSTNVGHNTY-NH2
# modifications: disulfide 2-7; N-terminus assumed
# SMILES: CC[C@H](C)[C@H](NC(=O)[C@H](C)NC(=O)CNC(=O)[C@H](Cc1ccccc1)NC(=O)[C@H](CC(N)=O)NC(=O)[C@@H]1CCCN1C(=O)[C@H](CO)NC(=O)[C@H](CO)NC(=O)[C@H](Cc1c[nH]cn1)NC(=O)[C@H](CCCNC(=N)N)NC(=O)[C@H](CC(C)C)NC(=O)[C@H](Cc1ccccc1)NC(=O)[C@H](CC(N)=O)NC(=O)[C@H](C)NC(=O)[C@H](CC(C)C)NC(=O)[C@H](CCCNC(=N)N)NC(=O)[C@H](CCC(N)=O)NC(=O)[C@@H](NC(=O)[C@H](C)NC(=O)[C@@H]1CSSC[C@H](NC(=O)[C@@H](N)CCCCNC(=O)COCCOCCNC(=O)COCCOCCNC(=O)CC[C@H](NC(=O)CCCCCCCCCCCCCCCCCCC(=O)O)C(=O)O)C(=O)N[C@@H](CC(N)=O)C(=O)N[C@@H]([C@@H](C)O)C(=O)N[C@@H](C)C(=O)N[C@@H]([C@@H](C)O)C(=O)N1)[C@@H](C)O)C(=O)N1CCC[C@H]1C(=O)N[C@@H](CO)C(=O)N[C@@H](CO)C(=O)N[C@H](C(=O)N[C@@H](CC(N)=O)C(=O)N[C@H](C(=O)NCC(=O)N[C@@H](Cc1c[nH]cn1)C(=O)N[C@@H](CC(N)=O)C(=O)N[C@H](C(=O)N[C@@H](Cc1ccc(O)cc1)C(N)=O)[C@@H](C)O)C(C)C)[C@@H](C)O
# notes: also called compound 97
# B4: N{-1}-[(4S)-4-carboxy-4-(19-carboxynonadecanoylamino)butanoyl]-Gly[Arg1,His14,Arg17,Pro21,Pro27]-h-amylin (peptide)
# peptide: {C20 diacid-γGlu}-GRCNTATCATQRLAHFLRHSSPNFGAIPSSTNVGSNTY-NH2
# modifications: disulfide 3-8
# SMILES: CC[C@H](C)[C@H](NC(=O)[C@H](C)NC(=O)CNC(=O)[C@H](Cc1ccccc1)NC(=O)[C@H](CC(N)=O)NC(=O)[C@@H]1CCCN1C(=O)[C@H](CO)NC(=O)[C@H](CO)NC(=O)[C@H](Cc1c[nH]cn1)NC(=O)[C@H](CCCNC(=N)N)NC(=O)[C@H](CC(C)C)NC(=O)[C@H](Cc1ccccc1)NC(=O)[C@H](Cc1c[nH]cn1)NC(=O)[C@H](C)NC(=O)[C@H](CC(C)C)NC(=O)[C@H](CCCNC(=N)N)NC(=O)[C@H](CCC(N)=O)NC(=O)[C@@H](NC(=O)[C@H](C)NC(=O)[C@@H]1CSSC[C@H](NC(=O)[C@H](CCCNC(=N)N)NC(=O)CNC(=O)CC[C@H](NC(=O)CCCCCCCCCCCCCCCCCCC(=O)O)C(=O)O)C(=O)N[C@@H](CC(N)=O)C(=O)N[C@@H]([C@@H](C)O)C(=O)N[C@@H](C)C(=O)N[C@@H]([C@@H](C)O)C(=O)N1)[C@@H](C)O)C(=O)N1CCC[C@H]1C(=O)N[C@@H](CO)C(=O)N[C@@H](CO)C(=O)N[C@H](C(=O)N[C@@H](CC(N)=O)C(=O)N[C@H](C(=O)NCC(=O)N[C@@H](CO)C(=O)N[C@@H](CC(N)=O)C(=O)N[C@H](C(=O)N[C@@H](Cc1ccc(O)cc1)C(N)=O)[C@@H](C)O)C(C)C)[C@@H](C)O
# notes: 38 residues: Gly added before position 1 of human amylin; also called compound 99
# B5: N^ε1-[(4S)-4-carboxy-4-(15-carboxypentadecanoylamino)butanoyl]-[Arg17,Pro21,Pro27,His34]-h-amylin (peptide)
# peptide: K([γGlu-C16 diacid])CNTATCATQRLANFLRHSSPNFGAIPSSTNVGHNTY-NH2
# modifications: disulfide 2-7; N-terminus assumed
# SMILES: CC[C@H](C)[C@H](NC(=O)[C@H](C)NC(=O)CNC(=O)[C@H](Cc1ccccc1)NC(=O)[C@H](CC(N)=O)NC(=O)[C@@H]1CCCN1C(=O)[C@H](CO)NC(=O)[C@H](CO)NC(=O)[C@H](Cc1c[nH]cn1)NC(=O)[C@H](CCCNC(=N)N)NC(=O)[C@H](CC(C)C)NC(=O)[C@H](Cc1ccccc1)NC(=O)[C@H](CC(N)=O)NC(=O)[C@H](C)NC(=O)[C@H](CC(C)C)NC(=O)[C@H](CCCNC(=N)N)NC(=O)[C@H](CCC(N)=O)NC(=O)[C@@H](NC(=O)[C@H](C)NC(=O)[C@@H]1CSSC[C@H](NC(=O)[C@@H](N)CCCCNC(=O)CC[C@H](NC(=O)CCCCCCCCCCCCCCC(=O)O)C(=O)O)C(=O)N[C@@H](CC(N)=O)C(=O)N[C@@H]([C@@H](C)O)C(=O)N[C@@H](C)C(=O)N[C@@H]([C@@H](C)O)C(=O)N1)[C@@H](C)O)C(=O)N1CCC[C@H]1C(=O)N[C@@H](CO)C(=O)N[C@@H](CO)C(=O)N[C@H](C(=O)N[C@@H](CC(N)=O)C(=O)N[C@H](C(=O)NCC(=O)N[C@@H](Cc1c[nH]cn1)C(=O)N[C@@H](CC(N)=O)C(=O)N[C@H](C(=O)N[C@@H](Cc1ccc(O)cc1)C(N)=O)[C@@H](C)O)C(C)C)[C@@H](C)O
# B6: N^ε1-[2-[2-[2-(19-carboxynonadecanoylamino)ethoxy]ethoxy]acetyl]-[Arg17,Pro21,Pro27,His34]-h-amylin (peptide)
# peptide: K([AEEA-C20 diacid])CNTATCATQRLANFLRHSSPNFGAIPSSTNVGHNTY-NH2
# modifications: disulfide 2-7; N-terminus assumed
# SMILES: CC[C@H](C)[C@H](NC(=O)[C@H](C)NC(=O)CNC(=O)[C@H](Cc1ccccc1)NC(=O)[C@H](CC(N)=O)NC(=O)[C@@H]1CCCN1C(=O)[C@H](CO)NC(=O)[C@H](CO)NC(=O)[C@H](Cc1c[nH]cn1)NC(=O)[C@H](CCCNC(=N)N)NC(=O)[C@H](CC(C)C)NC(=O)[C@H](Cc1ccccc1)NC(=O)[C@H](CC(N)=O)NC(=O)[C@H](C)NC(=O)[C@H](CC(C)C)NC(=O)[C@H](CCCNC(=N)N)NC(=O)[C@H](CCC(N)=O)NC(=O)[C@@H](NC(=O)[C@H](C)NC(=O)[C@@H]1CSSC[C@H](NC(=O)[C@@H](N)CCCCNC(=O)COCCOCCNC(=O)CCCCCCCCCCCCCCCCCCC(=O)O)C(=O)N[C@@H](CC(N)=O)C(=O)N[C@@H]([C@@H](C)O)C(=O)N[C@@H](C)C(=O)N[C@@H]([C@@H](C)O)C(=O)N1)[C@@H](C)O)C(=O)N1CCC[C@H]1C(=O)N[C@@H](CO)C(=O)N[C@@H](CO)C(=O)N[C@H](C(=O)N[C@@H](CC(N)=O)C(=O)N[C@H](C(=O)NCC(=O)N[C@@H](Cc1c[nH]cn1)C(=O)N[C@@H](CC(N)=O)C(=O)N[C@H](C(=O)N[C@@H](Cc1ccc(O)cc1)C(N)=O)[C@@H](C)O)C(C)C)[C@@H](C)O
# notes: also called compound 91
# Molecular target: T1, human amylin receptor (amylin 3(a) …)
# Experiment: cell-based or functional assay
row,Binder,hAmylin-R funct. EC50 (pM)
1,B1,96
2,B2,28
3,B3,356
4,B4,82
5,B5,34
6,B6,40

# Molecular target: T2, human calcitonin receptor
# Experiment: cell-based or functional assay
Binder,Ratio hCT/hAmylin funct.,hCTR funct. EC50 (pM)
B1,60.9,5850
B2,38.8,1090
B3,33,11800
B4,10,818
B5,65.1,2210
B6,36.9,1480
